One molecule from patent US20230414780A1 (VECT HORUS, published 2023) can be followed below.

The experiment addresses T1, human transferrin receptor (hTfR) fused to EGFP, on CHO cells (human, UniProt P02786 1-760).
T1 construct: whole, on cells; also called human TfR; CHO-hTfR-EGFP; not shown: EGFP from pEGFP-C1 vector, fused to the N-terminal (intracellular) end of hTfR
Briefly: competition flow cytometry on CHO-hTfR-EGFP cells, 4 C; VHH competitor in dilution series, phage-C5 tracer at EC80, anti-M13-A647. As to the method:
FIGS. 17A-17D: Competition assays between VHHs and phage-VHHs. CHO-hTfR-EGFP cells were incubated 1 hr at 4° C. with VHHs (competitors) at increasing concentrations. Phage-VHHs (tracers) were then added at EC80 and incubated for 1 more hr. Phage-VHHs were detected with an anti-M13-A647 antibody (1/200). Fluorescence levels were assessed using flow cytometry. The ratio of fluorescence intensity for each point was normalized with the corresponding EGFP signal (receptor expression) and gave rise to the arbitrary unit. Data are presented as mean±SEM of independent experiments.
To evaluate whether selected VHHs compete one with the other for binding to the TfR receptor, competition assays using flow cytometry experiments were performed. All experiments were performed in 96 well plates using 2×10⁵ cells/well, at 4° C. with shaking. CHO cell line expressing the hTfR fused to EGFP was saturated with PBS/BSA 2% solution during 30 min to avoid nonspecific binding, followed by incubation with VHH (competitors) at increasing concentrations for 1 hr. Then, phage-VHHs (tracers) at EC80 were added and incubated 1 hr more. To detect the phage-VHHs, cells were washed twice with PBS/BSA 2% and incubated for 1 hr with an Alexa647-conjugated anti-M13 antibody. […] Fluorescence levels were assessed using an Attune NxT flow cytometer (Thermo Fisher Scientific). […]
For orientation: Flow cytometry measures light scatter and fluorescence of single cells or particles in a stream.

T1 sequence (P02786 whole entry, the tested form may be a part): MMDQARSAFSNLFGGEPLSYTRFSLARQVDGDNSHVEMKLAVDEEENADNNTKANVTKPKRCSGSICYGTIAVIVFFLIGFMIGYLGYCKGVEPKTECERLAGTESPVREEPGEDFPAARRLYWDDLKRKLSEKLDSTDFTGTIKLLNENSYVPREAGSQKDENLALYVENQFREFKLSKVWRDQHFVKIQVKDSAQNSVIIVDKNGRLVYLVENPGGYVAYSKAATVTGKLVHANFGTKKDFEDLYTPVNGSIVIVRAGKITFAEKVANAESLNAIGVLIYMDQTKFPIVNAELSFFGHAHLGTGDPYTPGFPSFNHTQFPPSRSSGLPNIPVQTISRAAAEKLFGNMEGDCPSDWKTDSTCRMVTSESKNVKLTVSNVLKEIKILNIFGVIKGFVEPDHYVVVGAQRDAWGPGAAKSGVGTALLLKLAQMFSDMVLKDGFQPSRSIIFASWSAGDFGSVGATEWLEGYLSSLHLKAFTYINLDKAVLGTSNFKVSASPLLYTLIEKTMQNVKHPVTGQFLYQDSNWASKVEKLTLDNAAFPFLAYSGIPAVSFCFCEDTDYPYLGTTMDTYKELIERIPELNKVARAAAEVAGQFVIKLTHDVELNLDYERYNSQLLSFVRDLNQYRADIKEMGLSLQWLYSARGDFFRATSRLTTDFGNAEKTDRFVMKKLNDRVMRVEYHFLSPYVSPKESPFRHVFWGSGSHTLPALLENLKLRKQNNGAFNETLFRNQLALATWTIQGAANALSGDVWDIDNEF

B1: VHH A (C5) (VHH)
VHH: EVQLVESGGGVVQPGGSLKLSCVASGTDFSINFIRWYRQAPGKQREFVAGFTATGNTNYADSMKGRFTISRDNTKNAVYLQIDSLKPEDTAVYYCYMLDKWGQGTQVTVSS
notes: form with the C-terminal myc-His6 tag (x = 1), since the VHHs were detected with anti-6His or anti-cMyc; the same holds for m12 to m126
Take B1: the “IC50 (read off the curve)” value is about 50 nM.
